Data on one substance can be found in PMC10565641.

For one assay, the target named is Myc-tagged LEF1 (UniProt Q9UJU2). Description: co-immunoprecipitation (anti-FLAG IP, immunoblot densitometry). The note with it: HEK293T cells, transfected; densitometry mean of three independent experiments; parent: 1.0. On the technique in general: Immunoblotting shows a protein as a band on a membrane.
Another assay concerns the target Myc-tagged TCF7L2 (UniProt Q9NQB0). Described as above. Conditions: HEK293T cells, transfected; densitometry mean of three independent experiments; parent: 1.0.
Sequence of UniProt Q9NQB0 (Q9NQB0 whole entry): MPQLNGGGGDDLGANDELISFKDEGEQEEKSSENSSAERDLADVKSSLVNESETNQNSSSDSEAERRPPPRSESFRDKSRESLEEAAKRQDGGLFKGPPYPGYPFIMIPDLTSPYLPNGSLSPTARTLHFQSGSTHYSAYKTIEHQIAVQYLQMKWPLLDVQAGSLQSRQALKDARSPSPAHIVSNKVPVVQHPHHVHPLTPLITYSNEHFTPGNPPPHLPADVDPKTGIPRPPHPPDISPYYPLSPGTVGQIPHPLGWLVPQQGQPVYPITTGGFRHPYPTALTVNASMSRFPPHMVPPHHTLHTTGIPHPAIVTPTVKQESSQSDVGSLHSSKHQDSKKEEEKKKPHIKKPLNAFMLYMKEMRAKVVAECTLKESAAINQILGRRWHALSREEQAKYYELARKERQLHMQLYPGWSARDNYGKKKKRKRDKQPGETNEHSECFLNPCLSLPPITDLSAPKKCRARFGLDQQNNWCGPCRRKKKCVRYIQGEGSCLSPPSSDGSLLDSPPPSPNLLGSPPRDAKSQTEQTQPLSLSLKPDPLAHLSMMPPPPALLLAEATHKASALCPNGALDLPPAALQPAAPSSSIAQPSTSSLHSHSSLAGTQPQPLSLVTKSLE

Sequence of UniProt Q9UJU2 (Q9UJU2 whole entry): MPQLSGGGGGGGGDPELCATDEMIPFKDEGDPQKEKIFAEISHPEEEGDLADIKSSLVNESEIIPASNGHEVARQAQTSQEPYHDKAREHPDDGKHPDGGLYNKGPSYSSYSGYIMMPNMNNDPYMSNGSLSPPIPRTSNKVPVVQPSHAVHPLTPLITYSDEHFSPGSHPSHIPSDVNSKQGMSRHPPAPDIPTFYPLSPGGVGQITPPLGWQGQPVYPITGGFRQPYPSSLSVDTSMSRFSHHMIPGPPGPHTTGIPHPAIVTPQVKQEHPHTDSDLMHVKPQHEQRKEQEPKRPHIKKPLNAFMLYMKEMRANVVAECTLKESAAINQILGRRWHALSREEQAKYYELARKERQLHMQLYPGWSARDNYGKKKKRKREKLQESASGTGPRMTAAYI

As to “FLAG-V5-tagged FBXW7α, wild type (from UniProt Q969H0) WD40 (three arginine residues within one WD40 repeat mutated; lane label WD)”, the ratio to parent in the assay with Myc-tagged LEF1 was 0.44; with Myc-tagged TCF7L2 it was 0.17.
